# According to patent US20110245153A1:
# Target: Staphylococcal enterotoxin B (Staphylococcus aureus) (UniProt P01552)
# Sequence of UniProt P01552 (P01552 28-266 limits assumed): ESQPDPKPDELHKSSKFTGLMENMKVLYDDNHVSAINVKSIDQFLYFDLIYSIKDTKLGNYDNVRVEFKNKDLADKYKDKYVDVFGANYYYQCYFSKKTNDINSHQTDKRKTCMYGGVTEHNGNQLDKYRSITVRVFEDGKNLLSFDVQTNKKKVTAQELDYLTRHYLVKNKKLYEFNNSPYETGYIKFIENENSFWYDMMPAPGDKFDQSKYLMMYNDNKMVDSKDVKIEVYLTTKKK
substance,measurement,value
Vβ8 CDR2 mutant EGIGYITK (TCR),Kd,5 nM
